Test results as given in US20050074758A1.

Experiments:
[1] = molecular target: prokineticin receptor expressed endogenously on M2A7 melanoma cells (ATCC CRL-2500); assay: cell-based or functional assay
[2] = molecular target: prokineticin receptor(s) of guinea pig ileum (ileal membranes; ileal longitudinal smooth muscle) (guinea pig); assay: cell-based or functional assay
[3] = molecular target: prokineticin receptor(s) of guinea pig ileum (ileal membranes; ileal longitudinal smooth muscle) (guinea pig); assay: competition radioligand binding on guinea pig ileal membranes, filtration; displaced tracer 125I-prokineticin 1 (20 pM)
[4] = molecular target: prokineticin receptor(s) of guinea pig ileum (ileal membranes; ileal longitudinal smooth muscle) (guinea pig); assay: displacement of 125I-prokineticin 1 (20 pM) from guinea pig ileal membranes, two-site model, high-affinity site
[5] = molecular target: prokineticin receptor(s) of guinea pig ileum (ileal membranes; ileal longitudinal smooth muscle) (guinea pig); assay: displacement of 125I-prokineticin 1 (20 pM) from guinea pig ileal membranes, two-site model, low-affinity site
[6] = molecular target: prokineticin receptor(s) of guinea pig ileum (ileal membranes; ileal longitudinal smooth muscle) (guinea pig); assay: displacement of 125I-prokineticin 1 (20 pM) from guinea pig ileal membranes, low-affinity site
[7] = molecular target: prokineticin receptor(s) of guinea pig ileum (ileal membranes; ileal longitudinal smooth muscle) (guinea pig); assay: displacement of 125I-prokineticin 1 (20 pM) from guinea pig ileal membranes, high-affinity site
[8] = molecular target: prokineticin receptor(s) of guinea pig ileum (ileal membranes; ileal longitudinal smooth muscle) (guinea pig); assay: saturation binding of 125I-prokineticin 1 to guinea pig ileal membranes, Scatchard analysis, two-site model, high-affinity site
[9] = molecular target: prokineticin receptor(s) of guinea pig ileum (ileal membranes; ileal longitudinal smooth muscle) (guinea pig); assay: saturation binding of 125I-prokineticin 1 to guinea pig ileal membranes, Scatchard analysis, two-site model, low-affinity site
[10] = molecular target: prokineticin receptor(s) of guinea pig ileum (ileal membranes; ileal longitudinal smooth muscle) (guinea pig); assay: saturation binding of 125I-prokineticin 1 to guinea pig ileal membranes, two-site model, low-affinity site
[11] = molecular target: prokineticin receptor(s) of guinea pig ileum (ileal membranes; ileal longitudinal smooth muscle) (guinea pig); assay: saturation binding of 125I-prokineticin 1 to guinea pig ileal membranes, two-site model, high-affinity site

Binder	EC50 of calcium mobilization in M2A7 melanoma cells (FLIPR) [1] [nM]	ED50 of contraction of guinea-pig ileum longitudinal muscle [2] [nM]	time constant to midway contraction of ileal strips [2] [min]	IC50 (read off the curve) [3] [nM]	other results
recombinant refolded human prokineticin 1 (unlabeled), 6×His-tagged (ligand) AVITGACERDVQCGAGTCCAISLWLRGLRMCTPLGREGEECHPGSHKVPFFRKRKHHTCPCLPNLLCSRFPDGRYRCSMDLKNINFHHHHHH	12	0.46	15	5	Ki [4]: 0.008 nM; Ki [5]: 1.5 nM
chimeric prokineticin 12 (exons 1 and 2 of prokineticin 1, exon 3 of prokineticin 2) (ligand) AVITGACERDVQCGAGTCCAISLWLRGLRMCTPLGREGEECHPGSHKVPFFGRRMHHTCPCLPGLACLRTSFNRFICLAQK			40		
chimeric prokineticin 21 (exons 1 and 2 of prokineticin 2, exon 3 of prokineticin 1) (ligand) AVITGACDKDSQCGGGMCCAVSIWVKSIRICTPMGKLGDSCHPLTRKVPFFRKRKHHTCPCLPNLLCSRFPDGRYRCSMDLKNINF			40		EC50 of ileal contraction, fold against prokineticin 1 or prokineticin 2 [2]: 8 fold
recombinant refolded human prokineticin 2 (unlabeled), 6×His-tagged (ligand) AVITGACDKDSQCGGGMCCAVSIWVKSIRICTPMGKLGDSCHPLTRKVPFFGRRMHHTCPCLPGLACLRTSFNRFICLAQKHHHHHH	21	0.9	15	4	Ki [6]: 1.22 nM; Ki [7]: 0.0042 nM
125I-prokineticin 1 (iodinated recombinant human prokineticin 1) (ligand, 125I label by the iodogen method; iodinated residue(s) not stated) AVITGACERDVQCGAGTCCAISLWLRGLRMCTPLGREGEECHPGSHKVPFFRKRKHHTCPCLPNLLCSRFPDGRYRCSMDLKNINFHHHHHH					Kd [8]: 0.005 nM; Kd [9]: 0.227 nM; Bmax (fmol/mg of protein) [10]: 26.4; Bmax (fmol/mg of protein) [11]: 7.8
